Laboratory results taken from patent US20050080013A1 (Pfizer, published 2005).
Non-standard residues stand in square brackets, D forms with d. No end group written: not given here. Orn = NCCC[C@H](N)C(=O)O

T1: lecithin:cholesterol acyltransferase (LCAT), purified from human plasma (human, UniProt P04180 25-440)
T1 sequence (looked up): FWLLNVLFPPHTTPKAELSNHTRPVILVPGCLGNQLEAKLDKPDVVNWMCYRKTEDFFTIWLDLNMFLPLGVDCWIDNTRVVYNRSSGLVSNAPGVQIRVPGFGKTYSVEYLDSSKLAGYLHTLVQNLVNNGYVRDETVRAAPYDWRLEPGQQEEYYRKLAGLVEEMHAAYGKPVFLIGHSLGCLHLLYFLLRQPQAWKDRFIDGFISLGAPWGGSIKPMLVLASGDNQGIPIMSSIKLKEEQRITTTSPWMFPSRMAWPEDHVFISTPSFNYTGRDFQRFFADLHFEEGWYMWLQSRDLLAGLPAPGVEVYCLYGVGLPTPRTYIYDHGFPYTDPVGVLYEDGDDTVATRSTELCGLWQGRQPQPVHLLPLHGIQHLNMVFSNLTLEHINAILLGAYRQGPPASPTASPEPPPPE


target: T1, lecithin:cholesterol acyltransferase …; experiment: cell-based or functional assay

| Binder | ACTIVITY (%) LCAT [%] |
| --- | --- |
| PVLELFLNLLEKLLDALQKKLK [peptide 166] | 22 |
| Ac-PVLDLLRELLEELKQKLK-NH2 [peptide 191] | 100 |
| PVLELFENLLERLLDALQ[Orn][Orn]L[Orn] [peptide 185] | 3 |
| PVLELFLNLLERLLDALQKKLK [peptide 156] | 35 |
| PVLDLFRELLNELLEALXQXLX (Orn (O) at 18, 20, 22) [peptide 14] | 61 |
| Ac-PVLDLFRELWEELKQKLK-NH2 [peptide 199] | 76 |
| PVLELFEQLLEKLLDALQKKLK [peptide 168] | 17 |
| PVLDLFDNLLDRLLDLLNKKLK [peptide 173] | 15 |
| PVLELFDNLLDKLLDALQKKLR [peptide 180] | 8 |
| PVLELFENLLERGLDALQKKLK [peptide 154] | 39 |
| PVLEFFENLLERLLDALQKKLK [peptide 157] | 30 |
| PVLELFLNLLERLLDAWQKKLK [peptide 184] | 4 |
| PVLELFENLGERLLDALQKKLK [peptide 151] | 55 |
| PVLELFENLLERLLDALQKKLK [peptide 146] | 86 |
| PVLDLFRELWNELLEALKQKLK [peptide 15] | 60 |
| PVLDLLRELLNELLEALKQKLK [peptide 16] | 59 |
| PVLELFENLLERWLDALQKKLK [peptide 181] | 8 |
| PVLELFENLLERLLDLLQKKLK [peptide 165] | 23 |
| GVLELFENLLERLLDALQKKLK [peptide 145] | 100 |
| PVLELWENLLERLLDALQKKLK [peptide 176] | 11 |
| Ac-PLLDLFRELLEELKQKLK-NH2 [peptide 197] | 81 |

| Binder | ACTIVITY (%) LCAT [%] |
| --- | --- |
| AVLELFENLLERLLDALQKKLK [peptide 153] | 49 |
| PVFELFENLLERLLDALQKKLK [peptide 152] | 50 |
| PVLELFDNLLERLLDALQKKLK [peptide 179] | 8 |
| Ac-PVLDLFRELLEELKQKLK-NH2 [peptide 193] | 96 |
| PVLELFENLLERLLELLNKKLK [peptide 175] | 13 |
| PVLELFENWLERLLDALQKKLK [peptide 162] | 27 |
| PVLELFENLLEKLLDLLQKKLK [peptide 171] | 16 |
| PLLELFENLLEKLLDALQKKLK [peptide 183] | 6 |
| PVLELFENGLERLLDALQKKLK [peptide 167] | 18 |
| Ac-NVLDLFRELLEELKQKLK-NH2 [peptide 200] | 75 |
| Ac-PVLDLFKELLEELKQKLK-NH2 [peptide 192] | 100 |
| Ac-PALELFKDLLEELRQKLR-NH2 [peptide 202] | 70 |
| Ac-PVLDFFRELLEELKQKLK-NH2 [peptide 204] | 63 |
| PVLELFENLLEKLLEALQKKLK [peptide 182] | 7 |
| PVLELFENLLERLFDALQKKLK [peptide 147] | 76 |
| PVLDLFENLLERLLDALQKKLK [peptide 159] | 28 |
| GVLDLFRELLNEGLEALKQKLK [peptide 13] | 67 |
| Ac-PVLELFRELLEELKQKLK-NH2 [peptide 194] | 88 |
| PLLELFENLLERLLDALQKKLK [peptide 150] | 57 |
| PVLELFENLWERLLDALQKKLK [peptide 149] | 63 |
| Ac-PVLDLFREWLEELKQKLK-NH2 [peptide 205] | 60 |

| Binder | ACTIVITY (%) LCAT [%] |
| --- | --- |
| PVLELFENLLERLLEALQKKLK [peptide 161] | 27 |
| PVLELFLNLWERLLDALQKKLK [peptide 155] | 38 |
| PVLELFLNLLERLGDALQKKLK [peptide 172] | 16 |
| PVLELFENLLERLLDWLQKKLK [peptide 160] | 28 |
| PVLELFENLLERLGDALQKKLK [peptide 148] | 75 |
| Ac-PVLELFKELLEELKQKLK-NH2 [peptide 195] | 87 |
| PVLELFENLLE[Orn]LLDALQ[Orn][Orn]L[Orn] [peptide 170] | 17 |
| Ac-GVLDLFRELLEELKQKLK-NH2 [peptide 198] | 80 |
| PVLELFDNLLEKLLEALQKKLR [peptide 178] | 9 |
| GVLELFLNLLERLLDALQKKLK [peptide 177] | 10 |
| PVLELFENLLERLLDAWQKKLK [peptide 164] | 24 |
| Ac-PVLDLFRELLEELKNKLK-NH2 [peptide 196] | 81 |
| Ac-PLLDLFKELLEELKQKLK-NH2 [peptide 201] | 74 |
| Ac-AVLDLFRELLEELKQKLK-NH2 [peptide 203] | 66 |
| [dP][dV][dL][dE][dL][dF][dE][dN][dL][dL][dE][dR][dL][dL][dD][dA][dL][dQ][dK][dK][dL][dK] [peptide 174] | 13 |
| PVLELFLNLLERLLDWLQKKLK [peptide 158] | 30 |
| PVLELFKELLQELLEALKQKLK [peptide 17] | 59 |
| PVLELFENLLEKLLDALQKKLK [peptide 169] | 17 |
| PVLELFENLLERLWDALQKKLK [peptide 163] | 26 |
